How the values were obtained:
Assay in all cases: SPR, antibody captured, C2 as analyte;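 note: biacore at 37 °C, anti-C2 mAbs held by immobilised goat anti-human IgG, C2 alanine or serine mutants injected, double-referenced sensorgrams fitted to a 1:1 kinetic or steady-state model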
human C2 A472S = biological target: T1, human C2 A472S (human, UniProt P06681 21-752)
T1 sequence: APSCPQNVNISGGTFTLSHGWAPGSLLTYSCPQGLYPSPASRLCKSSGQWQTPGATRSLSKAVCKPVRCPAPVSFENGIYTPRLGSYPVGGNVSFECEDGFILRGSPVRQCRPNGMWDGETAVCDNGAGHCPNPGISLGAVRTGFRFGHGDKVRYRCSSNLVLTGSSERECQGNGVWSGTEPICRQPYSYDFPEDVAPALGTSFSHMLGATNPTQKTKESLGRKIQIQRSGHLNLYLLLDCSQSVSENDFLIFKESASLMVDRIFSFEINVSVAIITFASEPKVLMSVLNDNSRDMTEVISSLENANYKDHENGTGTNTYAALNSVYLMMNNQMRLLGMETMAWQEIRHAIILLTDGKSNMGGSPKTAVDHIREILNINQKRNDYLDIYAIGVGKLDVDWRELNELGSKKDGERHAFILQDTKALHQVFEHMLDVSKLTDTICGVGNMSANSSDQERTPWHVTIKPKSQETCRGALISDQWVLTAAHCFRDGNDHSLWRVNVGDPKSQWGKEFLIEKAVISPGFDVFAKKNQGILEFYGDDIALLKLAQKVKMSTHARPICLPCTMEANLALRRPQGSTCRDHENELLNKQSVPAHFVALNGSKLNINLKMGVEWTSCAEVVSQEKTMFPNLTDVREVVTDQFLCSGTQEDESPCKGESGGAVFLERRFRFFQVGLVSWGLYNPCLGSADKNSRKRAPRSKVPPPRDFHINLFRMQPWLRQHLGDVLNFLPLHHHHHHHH

human C2 N471A = biological target: T2, human C2 N471A (human, UniProt P06681 21-752)
T2 sequence: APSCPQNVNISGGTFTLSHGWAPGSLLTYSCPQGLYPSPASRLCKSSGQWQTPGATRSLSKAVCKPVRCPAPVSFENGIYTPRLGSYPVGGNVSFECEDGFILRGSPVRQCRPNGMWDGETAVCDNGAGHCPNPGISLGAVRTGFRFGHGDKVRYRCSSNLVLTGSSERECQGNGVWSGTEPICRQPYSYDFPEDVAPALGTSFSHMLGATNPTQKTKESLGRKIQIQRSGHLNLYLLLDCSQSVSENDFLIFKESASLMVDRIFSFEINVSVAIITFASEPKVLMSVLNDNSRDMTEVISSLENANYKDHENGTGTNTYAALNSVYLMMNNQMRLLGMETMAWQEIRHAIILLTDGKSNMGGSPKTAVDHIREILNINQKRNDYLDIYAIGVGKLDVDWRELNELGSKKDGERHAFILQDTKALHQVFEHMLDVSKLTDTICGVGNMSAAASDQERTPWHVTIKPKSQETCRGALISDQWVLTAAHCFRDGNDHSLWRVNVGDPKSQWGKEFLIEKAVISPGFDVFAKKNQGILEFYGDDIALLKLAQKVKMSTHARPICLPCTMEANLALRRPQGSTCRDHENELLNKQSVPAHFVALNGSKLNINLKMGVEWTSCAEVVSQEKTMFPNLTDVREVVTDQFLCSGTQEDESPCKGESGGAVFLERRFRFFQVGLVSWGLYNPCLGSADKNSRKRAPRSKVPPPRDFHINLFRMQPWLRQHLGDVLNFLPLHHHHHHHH

human C2 D441A = biological target: T3, human C2 D441A (human, UniProt P06681 21-752)
T3 sequence: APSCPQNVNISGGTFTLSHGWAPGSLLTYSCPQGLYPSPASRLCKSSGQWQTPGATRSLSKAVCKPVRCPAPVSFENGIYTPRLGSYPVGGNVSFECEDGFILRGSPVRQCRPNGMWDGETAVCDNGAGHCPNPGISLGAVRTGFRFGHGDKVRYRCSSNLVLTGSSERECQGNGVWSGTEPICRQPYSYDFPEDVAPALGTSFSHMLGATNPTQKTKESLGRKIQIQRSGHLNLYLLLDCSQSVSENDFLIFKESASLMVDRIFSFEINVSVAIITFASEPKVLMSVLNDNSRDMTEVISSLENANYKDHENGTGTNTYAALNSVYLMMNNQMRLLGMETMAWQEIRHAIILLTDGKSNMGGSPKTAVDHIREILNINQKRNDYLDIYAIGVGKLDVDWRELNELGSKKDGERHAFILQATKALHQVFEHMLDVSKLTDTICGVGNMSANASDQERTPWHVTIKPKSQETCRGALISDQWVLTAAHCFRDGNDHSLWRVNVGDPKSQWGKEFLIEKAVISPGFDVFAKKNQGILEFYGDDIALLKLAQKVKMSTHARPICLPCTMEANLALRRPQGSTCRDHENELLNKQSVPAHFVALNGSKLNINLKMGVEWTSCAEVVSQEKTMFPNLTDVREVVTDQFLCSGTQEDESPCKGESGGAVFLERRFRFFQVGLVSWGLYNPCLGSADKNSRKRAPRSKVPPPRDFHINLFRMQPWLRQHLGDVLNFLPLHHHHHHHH

human C2 H451A = biological target: T4, human C2 H451A (human, UniProt P06681 21-752)
T4 sequence: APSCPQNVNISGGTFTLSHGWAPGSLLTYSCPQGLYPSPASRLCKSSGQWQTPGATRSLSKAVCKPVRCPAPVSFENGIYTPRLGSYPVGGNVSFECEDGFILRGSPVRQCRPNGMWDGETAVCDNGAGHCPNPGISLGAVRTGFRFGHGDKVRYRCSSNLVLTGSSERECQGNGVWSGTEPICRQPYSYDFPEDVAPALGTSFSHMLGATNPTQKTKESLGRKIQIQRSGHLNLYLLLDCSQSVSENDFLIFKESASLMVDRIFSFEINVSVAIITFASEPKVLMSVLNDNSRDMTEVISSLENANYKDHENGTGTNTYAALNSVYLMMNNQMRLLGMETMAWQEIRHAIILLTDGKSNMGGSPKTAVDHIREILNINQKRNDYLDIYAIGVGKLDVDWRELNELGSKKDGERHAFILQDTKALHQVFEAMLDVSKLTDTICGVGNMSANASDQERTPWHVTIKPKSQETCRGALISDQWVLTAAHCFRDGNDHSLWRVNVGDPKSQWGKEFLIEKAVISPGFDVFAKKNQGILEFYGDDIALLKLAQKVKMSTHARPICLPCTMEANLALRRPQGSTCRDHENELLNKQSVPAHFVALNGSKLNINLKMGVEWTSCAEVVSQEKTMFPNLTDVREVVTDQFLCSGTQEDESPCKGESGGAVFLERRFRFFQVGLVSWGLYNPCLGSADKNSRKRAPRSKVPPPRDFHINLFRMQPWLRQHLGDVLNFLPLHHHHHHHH

B1: RF16-242 (antibody, human IgG4 S228P, lambda, V domains shown)
VH: EVQLLQSGAEVKKPGESLKISCKGSGYSFTSYWIGWVRQMPGKGLEWMGIIYPGDSDTRYSPSFQGQVTISADKSISTAYLQWSSLKASDTAMYYCARRGHYGDYFDYWGQGTLVTVSS
VL: SYELTQPPSVSVSPGQTARITCSGDALPKKYAYWYHQKSGQAPVLVIYEDRRRPSEIPERFSGSSSGTMATLTITGAQVEDEGVYFCYSRDRAGNQRVFGGGTQLTVLG
notes: pH-dependent anti-C2 antibody from a phage display library
Kd (human C2 A472S): 51.1 nM | Kd (human C2 N471A): 9.2 nM | Kd (human C2 D441A): 114 nM | Kd (human C2 H451A): 21.3 nM

Reference: US20220332804A1 (CSL INNOVATION, published 2022)
